According to patent US6905849B1, “Process for preparing clavam derivatives by using polypeptides having β-lactam synthetase activity” (SmithKline Beecham plc, priority 1998, dated 2005):

Experiment: Assay for conversion of compound (III) to compound (IV) by protein extracts, HPLC detection
Type: biochemical, Streptomyces clavuligerus
Details: recombinant orf3 protein from E. coli BL21(DE3)/pBLS3; ATP, Mg(AcO)2, MOPS pH 7.4; 37 °C, 15 minutes; underivatised and benzoin-derivatised HPLC
Experimental: The crude extracts prepared from the recombinant E. coli containing the pBLS3vector (example 5) and the purified protein product (example 6) were tested for the ability to catalyse the conversion of the compound (III) to compound (IV). Both compound (III) and compound (IV) were prepared synthetically following previously published methods (Baldwin et al J. Chem Soc. Chem Comm. 1993 p500-2 and Elson et al J. Chem Soc. Chem Comm. 1993 p1212-4). Protein extracts were assayed for the conversion of compound (III) to compound (IV) under the following conditions: [table] The above mixture was heated at 37 ° C. for 15 minutes before being analysed by the HPLC methods described below. This assay was carried out using the following equipment and conditions • Waters 746 data module • Waters 600E system controller • Waters 712 WISP injector • Waters 848 tunable absorbance detector The protocol used was Kai et al. (M. Kai, T. Miyazaki, M. Yamaguchi, Y Ohkura, J. Chromatog. 268, 417-424, 1983) which assays for compounds containing guanidino functionalities using a fluorescence detector. […]

B1: orf3 product: polypeptide encoded by orf3 of the Streptomyces clavuligerus clavulanic acid gene cluster (SEQ ID NO:2), 56 KDa, β-lactam synthetase (protein, listed as Streptomyces clavuligerus)
chain: GAPVLPAAFGFLASARTGGGRAPGPVFATRGSHTDIDTPQGERSLAATLVHAPSVAPDRAVARSLTGAPTTAVLAGEIYNRDELLSVLPAGPAPEGDAELVLRLLERYDLHAFRLVNGRFATVVRTGDRVLLATDHAGSVPLYTCVAPGEVRASTEAKALAAHRDPKGFPLADARRVAGLTGVYQVPAGAVMDIDLGSGTAVTHRTWTPGLSRRILPEGEAVAAVRAALEKAVAQRVTPGDTPLVVLSGGIDSSGVAACAHRAAGELDTVSMGTDTSNEFREARAVVDHLRTRHREITIPTTELLAQLPYAVWASESVDPDIIEYLLPLTALYRALDGPERRILTGYGADIPLGGMHREDRLPALDTVLAHDMATFDGLNEMSPVLSTLAGHWTTHPYWDREVLDLLVSLEAGLKRRHGRDKWVLRAAMADALPAETVNRPKLGVHEGSGTTSSFSRLLLDHGVAEDRVHEAKRQVVRELFDLTVGGGRHPSEVDTDDVVRSVADRTARGAA
  β-lactam synthetase activity: conversion of compound (III) to compound (IV): catalysis the conversion of compound (III) to compound (IV)
